According to US5457182A (Merck & Co., Inc., priority 1994, dated 1995):

What was measured:
[1] = target: calcineurin; test: Calcineurin phosphatase assay; assay type: biochemical, bovine; details: in presence of FK-506, CaN, CaM, Ca^2+, Mg^2+; read-out: IC50 for inhibition of CaN
Description: For a side-by-side comparison, FKBP12 was also tested for its ability to inhibit calcineurin in the presence of drug.
The calcineurin phosphatase assay is a modified version of previous assays (Liu, J., et al., Cell, 66, 807-815 (1991); Manalan, A., et al., Proc. Natl. Acad. Sci. U.S.A., 80, 4291-4295 (1983)). Reaction mixtures ([…] contained: 40 mM Tris (pH 8), 100 mM NaCl, 6 mM Mg(OAc)2, 0.1 mM CaCl2, 0.1 mg/ml BSA, 0.5 mM dithiothreitol, 190 nM bovine brain calmodulin (Sigma), 3 nM bovine brain calcineurin (Sigma), and 40 μM [^33 P]RII peptide (Peptides International) (600 cpm/pmole). Reaction mixtures were pre-incubated for 30 min at 30° C. prior to addition of the labeled peptide. The reaction was initiated by addition of the peptide and the dephosphorylation reaction was allowed to proceed for 10 min at 30° C. The reaction was terminated by the addition of 0.5 ml of 5% trichloroacetic acid containing 100 mM sodium phosphate (stop buffer) and applied to a 0.5 ml Dowex 50W-X8, H^+ column. Free [^33 P]phosphate was eluted from the column with 0.5 ml of stop buffer followed by 0.5 ml of water.

[2] = Peptidyl-prolyl cis-trans isomerase (PPIase) activity; assay type: biochemical; details: homogeneous FKBP12 vs partially pure (about 25%) FKBP12.6
Description: PPIase assays were performed as described (Fischer, G., et al., Nature, 337,476-478 (1989)) with the following changes: the peptide substrate used was N-succinyl-Ala-Leu-Pro-Phe-p-nitroanilide (BACHEM, California) at a final concentration of 72 μM and chymotrypsin (Sigma) was present in the assay at a concentration of 6 μM. The total reaction volume was 1.5 ml. The release of p-nitroanilide by chymotrypsin was measured by following the increase in absorbance at 405 nm on a Beckman DU68 spectrophotometer. After an initial rapid rise in absorbance due to hydrolysis of the trans peptide, the slow secondary increase in absorbance which reflects the cis-to-trans conversion of the peptide by the PPIase was measured at 3 sec intervals out to 1.5 min. The data were fitted to a simple first-order rate equation and the first-order rate constant, k (s^-1), calculated.

[3] = system: calcineurin; test: FKBP.FK-506.CaN complex-formation assay (size-exclusion column, Western analysis); assay type: binding, bovine; details: partially purified FKBPs, CaM, Ca^2+, Mg^2+ and FK-506
Description: In the modified assay, samples were assayed by Western analysis using the anti-C-terminal peptide antibody in order to identify FKBP12 and FKBP12.6 in various chromatographic fractions.
In the first experiment, FKBP12 and FKBP12.6 were partially purified by preparative HPLC gel filtration chromatography on a Bio-Sil TSK-125 column. These partially purified FKBPs (containing both FKBP12 and FKBP12.6) are devoid of CaN which separates completely from them on this column. FKBP12 and FKBP12.6 co-elute at fractions 26 and 27 on the analytical sizing column (G2000SW) used in this experiment. […] Because this crude FKBP material also contains FKBP12.6, it can also be observed migrating slightly above FKBP12 in FIG. 4A.
To more carefully examine the requirements for FKBP12.6 complex formation with CaN, experiments were conducted using purified FKBP12.6.
The incubation buffer contained 20 mM Tris (pH 7.5), 100 mM NaCl, 6 mM MgCl2, 0.1 mM CaCl2, 0.1 mg/ml BSA, and 0.5 mM dithiothreitol. The incubation reaction was chromatographed on a Bio-Sil SEC400 HPLC column (Bio-Rad) at a flow rate of 1 ml/min and 1 min fractions were collected. The chromatography buffer was the same as the incubation buffer except that BSA was omitted. 30 μl of fractions 19-29 were subjected to electrophoresis on a 16% Novex Tris-Glycine gel and Western analysis was performed as described above.

B1: FKBP12: abundant, cytosolic 11.8 kDa protein termed the FK-506 binding protein; bovine sequence SEQ ID NO:2 (protein)
chain: GVQVETISPGDGRTFPKRGQTCVVHYTGMLEDGKKFDSSRDRNKPFKFVLGKQEVIRGWEEGVAQMSVGQRAKLTISPDYAYGATGHPGIIPPNATLIFDVELLKLE
Question: With B1 as the molecule, how does the IC50 [1] read?
Answer: The IC50 was 9.9 nM.

Question: What about the “slope of PPIase rate relative to FKBP12.6” value [2] of the same molecule?
Answer: Its value is 4.1 fold.

Question: And the “complex formation with CaN” value [3]?
Answer: The value was “a significant fraction of FKBP12 is in the FKBP12.FK-506-CaN complex”.
